In experiment [1] the target is T1, hD52 bait (GAL4 DNA-binding domain fusion, pAS2-1hD52) (human, UniProt P04386 1-147 (Saccharomyces cerevisiae entry)).
T1 construct: Fusion expressed in yeast; also called full-length hD52 bait
Briefly: yeast two-hybrid, Y190 co-transfectants, HIS3/lacZ reporters; interactor (GAL4-AD fusion) against bait (GAL4-DB fusion). How it is done:
(§1) Interactions between baits and interactors were assessed by qualitatively and/or quantitatively determining HIS3 and/or lacZ reporter gene activity in Y190 co-transfectants.
(§2) Interactions between D52-like proteins within the yeast two-hybrid system, as measured by quantitative β-galactosidase assays. […] Three (or two*) colonies from each co-transfected Y190 strain were cultured in the absence of histidine, and assayed separately for β-galactosidase activity (see Methods). The mean number of β-galactosidase activity units obtained for each co-transfection is presented, ± the standard error.

Experiment [2] concerns the target T2, hD53 bait (GAL4 DNA-binding domain fusion, pAS2-1hD53) (human, UniProt P04386 1-147 (Saccharomyces cerevisiae entry)).
T2 construct: Fusion expressed in yeast; also called full-length hD53 bait
The description is as above. As to the method: as §1, §2

In experiment [3] the target is T3, hD54+ins2 bait (GAL4 DNA-binding domain fusion, pAS2-1hD54+ins2) (human, UniProt P04386 1-147 (Saccharomyces cerevisiae entry)).
T3 construct: Fusion expressed in yeast
The experiment is described as above. As to the method: as §1, §2

Experiment [4] concerns the target T4, hD54-ins2 bait (GAL4 DNA-binding domain fusion, pAS2-1hD54-ins2) (human, UniProt P04386 1-147 (Saccharomyces cerevisiae entry)).
T4 construct: Fusion expressed in yeast
Described as above. As to the method: as §1, §2

Experiment [5] concerns the target GST protein (glutathione S-transferase alone) (UniProt P08515 1-218 = GST). Nature of the experiment: GST pull-down, autoradiography. As to the method: Proteins were isolated by incubating E. coli samples in isotonic lysis buffer (10 mM potassium phosphate pH 8.0, 140 mM KCl, 3 mM MgCl_2, 1 mM DTT, 0.5% Nonidet P-40, 0.5 mM PMSF) for 15 min on wet ice, followed by brief sonication. Protein product sizes were verified by electrophoresing pre- and post-induction protein samples on 10% SDS-polyacrylamide gels, followed by Coomassie Brilliant Blue staining. Post-induction protein extracts were incubated with glutathione-agarose (Sigma) which had been previously saturated in 0.5% (w/v) BSA (fraction V, Boehringer-Mannheim). Recombinant proteins (2–5 μg) bound to 30 μl glutathione agarose were then incubated with 7 μl of each in vitro translation reaction, and 2.6 mg soluble BL21 protein extract, prepared as described in Ausubel, F. M., el al., *Current Protocols in Molecular Biology* Vol. 3 (1996), for 2 h at 4° C. Matrixes were washed 3 times with 1 ml cold buffer (50 mM potassium phosphate pH 7.5, 150 mM KCl, 10 mM MgCl_2, 10% (v/v) glycerol, 1% Triton X-100, 0.5 mM PMSF), and bound proteins were eluted in 12 μl SDS-loading buffer (50 mM Tris pH 6.8, 2% (w/v) SDS, 10% (v/v) glycerol, 10% (v/v) 2-mercaptoethanol) by boiling for 5 min. Eluted proteins (6 μl) were separated on 10% SDS-polyacrylamide gels, which were stained with Coomassie Brilliant Blue, dried, and exposed to autoradiographic film (BioMax, Kodak) for 10 days at −80° C.

Experiment [6] concerns the target T2, hD53 bait (GAL4 DNA-binding domain …). Briefly: yeast two-hybrid screening of a human breast carcinoma cDNA library in Y190 (His+ lacZ+).

These results are taken from patent US6458943 (INSTITUT NATIONAL DE LA SANTE ET DE LA RECHERCHE MEDICALE, dated 2002).

Chain of GST protein (glutathione S-transferase alone) (P08515 whole entry): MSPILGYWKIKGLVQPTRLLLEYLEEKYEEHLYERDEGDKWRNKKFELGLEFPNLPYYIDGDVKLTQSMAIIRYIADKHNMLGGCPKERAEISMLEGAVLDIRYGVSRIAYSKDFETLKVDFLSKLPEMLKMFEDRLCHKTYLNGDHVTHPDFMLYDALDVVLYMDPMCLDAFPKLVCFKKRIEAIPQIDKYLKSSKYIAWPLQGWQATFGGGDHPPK

B1: hD54+ins2 interactor (GAL4 activation domain fusion, pACT2hD54+ins2) (other)
chain: ANFNQSGNIADSSLSFTFTNSSNGPNLITTQTNSQALSQPIASSNVHDNFMNNEITASKIDDGNNSKPLSPGWTDQTAYNAFGITTGMFNTTTMDDVYNYLFDDEDTPPNPKKEMDSAGQDINLNSPNKGLLSDSMTDVPVDTGVAARTPAVEGLTEAEEEELRAELTKVEEEIVTLRQVLAAKEKHCGELKRRLGLSTLGELKQNLSRSWHDVQVSSAYVKTSEKLGEWNEKVTQSDLYKKTQETLSQAGQKTSAALSTVGSAISRKLGDMRNSATFKSFEDRVGTIKSKVVGDRENGSDNLPSSAGSGDKPLSDPAPF
notes: range 768-881
B1: the binding result in experiment [1], in experiment [2], in experiment [3] and in experiment [4] was “binds” each time.

B2: hD53 interactor (GAL4 activation domain fusion, pACT2hD53) (other)
chain: ANFNQSGNIADSSLSFTFTNSSNGPNLITTQTNSQALSQPIASSNVHDNFMNNEITASKIDDGNNSKPLSPGWTDQTAYNAFGITTGMFNTTTMDDVYNYLFDDEDTPPNPKKEMEAQAQGLLETEPLQGTDEDAVASADFSSMLSEEEKEELKAELVQLEDEITTLRQVLSAKERHLVEIKQKLGMNLMNELKQNFSKSWHDMQTTTAYKKTHETLSHAGQKATAAFSNVGTAISKKFGDMSYSIRHSISMPAMRNSPTFKSFEERVETTVTSLKTKVGGTNPNGGSFEEVLSSTAHASAQSLAGGSRRTKEEELQC
notes: range 768-881
B2: the binding result in experiment [1], in experiment [2], in experiment [3] and in experiment [4] was “binds” throughout.

B3: hD54-ins2 interactor (GAL4 activation domain fusion, pACT2hD54-ins2) (other)
chain: ANFNQSGNIADSSLSFTFTNSSNGPNLITTQTNSQALSQPIASSNVHDNFMNNEITASKIDDGNNSKPLSPGWTDQTAYNAFGITTGMFNTTTMDDVYNYLFDDEDTPPNPKKEMDSAGQDINLNSPNKGLLSDSMTDVPVDTGVAARTPAVEGLTEAEEEELRAELTKVEEEIVTLRQVLAAKEKHCGELKRRLGLSTLGELKQNLSRSWHDVQVSSAYKKTQETLSQAGQKTSAALSTVGSAISRKLGDMRNSATFKSFEDRVGTIKSKVVGDRENGSDNLPSSAGSGDKPLSDPAPF
notes: range 768-881
With B3, the binding result in experiment [1], in experiment [2], in experiment [3] and in experiment [4] was “binds” in each case.

B4: in vitro-translated 35S-labelled hD54-ins2 (pTL1hD54-ins2) (other)
chain: MDSAGQDINLNSPNKGLLSDSMTDVPVDTGVAARTPAVEGLTEAEEEELRAELTKVEEEIVTLRQVLAAKEKHCGELKRRLGLSTLGELKQNLSRSWHDVQVSSAYKKTQETLSQAGQKTSAALSTVGSAISRKLGDMRNSATFKSFEDRVGTIKSKVVGDRENGSDNLPSSAGSGDKPLSDPAPF
modifications: 35S-methionine label
On to B4, for which the binding result in experiment [5] was “no binding”.

B5: mD52(1-163) interactor (GAL4 activation domain fusion, pACT2mD52(1-163)) (other)
chain: ANFNQSGNIADSSLSFTFTNSSNGPNLITTQTNSQALSQPIASSNVHDNFMNNEITASKIDDGNNSKPLSPGWTDQTAYNAFGITTGMFNTTTMDDVYNYLFDDEDTPPNPKKEMDRGEQGLLKTEPVAEEGEDAVTMLSAPEALTEEEQEELRRELTKVEEEIQTLSQVLAAKEKHLAELKRKLGISSLQEFKQNIAKGWQDVTATNAYKKTSETLSQAGQKASAAFSSVGSVITKKLEDVKNSPTFKSFEEKVENLKSKVGGAKPAGGDFGEVLN
notes: range 768-881
Consider B5, for which the binding result in experiment [1], in experiment [2], in experiment [3] and in experiment [4] was “binds” throughout.

B6: hD52 interactor (GAL4 activation domain fusion, pAD-GAL4hD52) (other)
chain: PSALFGGANFNQSGNIADSSLSFTFTNSSNGPNLITTQTNSQALSQPIASSNVHDNFMNNEITASKIDDGNNSKPLSPGWTDQTAYNAFGITTGMFNTTTMDDVYNYLFDDEDTPPNPKKEMDRGEQGLLRTDPVPEEGEDVAATISATETLSEEEQEELRRELAKVEEEIQTLSQVLAAKEKHLAEIKRKLGINSLQELKQNIAKGWQDVTATSAYKKTSETLSQAGQKASAAFSSVGSVITKKLEDVKNSPTFKSFEEKVENLKSKVGGTKPAGGDFGEVLNSAANASATTTEPLPEKTQESL
notes: range 761-881; also called hD52^c
Take B6: the binding result in experiment [6], in experiment [1], in experiment [3] and in experiment [4] was “binds” each time.

B7: +5 hD53 library interactor (novel hD53 isoform, pAD-GAL4 clone) (other)
chain: PSALFGGANFNQSGNIADSSLSFTFTNSSNGPNLITTQTNSQALSQPIASSNVHDNFMNNEITASKIDDGNNSKPLSPGWTDQTAYNAFGITTGMFNTTTMDDVYNYLFDDEDTPPNPKKESSWLPWSEVLHRPWRNHPICLLETEPLQGTDEDAVASADFSSMLSEEEKEELKAELVQLEDEITTLRQVLSAKERHLVEIKQKLGMNLMNELKQNFSKSWHDMQTTTAYKKTHETLSHAGQKATAAFSNVGTAISKKFGDMRRK
notes: range 761-881; also called nt 1 (Ser^1)
As for B7, the binding result in experiment [6] is “binds”.

B8: in vitro-translated 35S-labelled hD52 (pTL1hD52) (other)
chain: MDRGEQGLLRTDPVPEEGEDVAATISATETLSEEEQEELRRELAKVEEEIQTLSQVLAAKEKHLAEIKRKLGINSLQELKQNIAKGWQDVTATSAYKKTSETLSQAGQKASAAFSSVGSVITKKLEDVKNSPTFKSFEEKVENLKSKVGGTKPAGGDFGEVLNSAANASATTTEPLPEKTQESL
modifications: 35S-methionine label
Take B8: in experiment [5], the binding result is “no binding”.

B9: hD53 library interactor, pAD-GAL4 clone beginning at nt 111 of the hD53 cDNA (<Met1) (other)
chain: PSALFGGANFNQSGNIADSSLSFTFTNSSNGPNLITTQTNSQALSQPIASSNVHDNFMNNEITASKIDDGNNSKPLSPGWTDQTAYNAFGITTGMFNTTTMDDVYNYLFDDEDTPPNPKKEMEAQAQGLLETEPLQGTDEDAVASADFSSMLSEEEKEELKAELVQLEDEITTLRQVLSAKERHLVEIKQKLGMNLMNELKQNFSKSWHDMQTTTAYKKTHETLSHAGQKATAAFSNVGTAISKKFGDMSYSIRHSISMPAMRNSPTFKSFEERVETTVTSLKTKVGGTNPNGGSFEEVLSSTAHASAQSLAGGSRRTKEEELQC
notes: range 761-881; also called nt 111 (<Met^1)
For the molecule B9, the binding result in experiment [6] is on record as “binds”.

B10: hD53 library interactor, pAD-GAL4 clone beginning at nt 81 of the hD53 cDNA (<Met1) (other)
chain: B9 chain
notes: range 761-881; also called nt 81 (<Met^1)
As for B10, in experiment [6], the binding result was “binds”.

B11: in vitro-translated 35S-labelled mD52 (pTL1mD52) (other)
chain: MDRGEQGLLKTEPVAEEGEDAVTMLSAPEALTEEEQEELRRELTKVEEEIQTLSQVLAAKEKHLAELKRKLGISSLQEFKQNIAKGWQDVTATNAYKKTSETLSQAGQKASAAFSSVGSVITKKLEDVKNSPTFKSFEEKVENLKSKVGGAKPAGGDFGEVLNSTANATSTMTTEPPPEQMTESP
modifications: 35S-methionine label
B11: in experiment [5], the binding result is on record as “no binding”.
